# Assay results reported in PMC10853514, “Autoinhibition and activation of myosin VI revealed by its cryo-EM structure” (Nature Communications, 2024).
# B1: human myosin VI heavy chain, full length, containing both the large-insertion (LI) and small-insertion (SI) regions (natural protein)
# chain: MEDGKPVWAPHPTDGFQMGNIVDIGPDSLTIEPLNQKGKTFLALINQVFPAEEDSKKDVEDNCSLMYLNEATLLHNIKVRYSKDRIYTYVANILIAVNPYFDIPKIYSSEAIKSYQGKSLGTRPPHVFAIADKAFRDMKVLKMSQSIIVSGESGAGKTENTKFVLRYLTESYGTGQDIDDRIVEANPLLEAFGNAKTVRNNNSSRFGKFVEIHFNEKSSVVGGFVSHYLLEKSRICVQGKEERNYHIFYRLCAGASEDIREKLHLSSPDNFRYLNRGCTRYFANKETDKQILQNRKSPEYLKAGSMKDPLLDDHGDFIRMCTAMKKIGLDDEEKLDLFRVVAGVLHLGNIDFEEAGSTSGGCNLKNKSAQSLEYCAELLGLDQDDLRVSLTTRVMLTTAGGTKGTVIKVPLKVEQANNARDALAKTVYSHLFDHVVNRVNQCFPFETSSYFIGVLDIAGFEYFEHNSFEQFCINYCNEKLQQFFNERILKEEQELYQKEGLGVNEVHYVDNQDCIDLIEAKLVGILDILDEENRLPQPSDQHFTSAVHQKHKDHFRLTIPRKSKLAVHRNIRDDEGFIIRHFAGAVCYETTQFVEKNNDALHMSLESLICESRDKFIRELFESSTNNNKDTKQKAGKLSFISVGNKFKTQLNLLLDKLRSTGASFIRCIKPNLKMTSHHFEGAQILSQLQCSGMVSVLDLMQGGYPSRASFHELYNMYKKYMPDKLARLDPRLFCKALFKALGLNENDYKFGLTKVFFRPGKFAEFDQIMKSDPDHLAELVKRVNHWLTCSRWKKVQWCSLSVIKLKNKIKYRAEACIKMQKTIRMWLCKRRHKPRIDGLVKVGTLKKRLDKFNEVVSVLKDGKPEMNKQIKNLEISIDTLMAKIKSTMMTQEQIQKEYDALVKSSEELLSALQKKKQQEEEAERLRRIQEEMEKERKRREEDEKRRRKEEEERRMKLEMEAKRKQEEEERKKREDDEKRIQAEVEAQLARQKEEESQQQAVLEQERRDRELALRIAQSEAELISDEAQADLALRRNDGTRPKMTPEQMAKEMSEFLSRGPAVLATKAAAGTKKYDLSKWKYAELRDTINTSCDIELLAACREEFHRRLKVYHAWKSKNKKRNTETEQRAPKSVTDYDFAPFLNNSPQQNPAAQIPARQREIEMNRQQRFFRIPFIRPADQYKDPQSKKKGWWYAHFDGPWIARQMELHPDKPPILLVAGKDDMEMCELNLEETGLTRKRGAEILPRQFEEIWERCGGIQYLQNAIESRQARPTYATAMLQSLLK
# notes: myosin VI, human, full length with both the alternatively spliced LI and SI regions; codon-optimised synthetic gene; also called the heavy chain; source: HEK293-F, co-transfected with CaM, purified (Flag resin, size exclusion)
# B2: myosin VI cargo-binding domain 1 (CBD1), aa 1072-1158 (domain or fragment, human, UniProt Q9UM54-1 1072-1158, looked up)
# chain: TKKYDLSKWKYAELRDTINTSCDIELLAACREEFHRRLKVYHAWKSKNKKRNTETEQRAPKSVTDYDFAPFLNNSPQQNPAAQIPAR
# notes: myosin VI, human, CBD1 aa 1072-1158, numbers of the form with LI and SI; also called the CBD1; source: E. coli BL21(DE3), purified (Ni-NTA, size exclusion)
# What was measured:
# [1] = target: T1, calmodulin (CaM), light chain of myosin VI (UniProt P0DP23 1-149); experiment: cryo-EM structure; single-particle cryo-EM of myosin VI/CaM in PB, TB + AMPPNP and PB + ATP, the three datasets combined; autoinhibited state, 3.54 Å (4.14 Å map with the SAH-E); settings: both partners purified
# T1 construct: calmodulin, the light chain of myosin VI; Two copies stand in the structure: CaM1 on Insert2 (with four Ca2+ ions) and CaM2 on the IQ motif; also called CaM1; CaM2; source: HEK293-F, co-transfected with myosin VI, co-purified
# [2] = target: T2, myosin VI motor domain (MD), aa 1-789 (human, UniProt Q9UM54-1 1-789); experiment: SEC; analytical SEC at 16 °C in PB (20 mM Na2HPO4/NaH2PO4 pH 7.4, 60 mM NaCl, 1 mM EGTA, 2 mM DTT, 2 mM MgCl2); 3.0 μM of the MD and CBD1 proteins; settings: both partners purified
# T2 construct: myosin VI, human, motor domain aa 1-789; The methods say that myosin VI or its mutants were co-transfected with CaM; also called the MD; source: HEK293-F (pCAG vector), purified
Binder,binding result [1],binding result [2]
B1,binds,–
B2,–,binds
